Experimental data: the DeepSol protein solubility set

assay: soluble on expression in E. coli; label from the status in PepcDB or PDB records

Sequence | soluble on expression in E. coli
MSHPWRSRGEKRTIMFGYTPSDTILKYLKDMRDLINRAILNAYSIARSNDDSLPSPITLRRSLKDYYDNNVAYAKHHINPVCRTAIAMLRSYKKNNGRLKVVKAKRLAMRIDSELAKIEDNRLRITIRPNVYEYVDIVDRNKKYSEYSKYPISEVLLTDNRVYITFITGSDDKPVIANNIIGFDLNFKSVDYTVIKDNRIAYVDSIDTYDIAKTQRDYERKRRKIQKHIRNPAKRIRKLKEAKHRQRNIVRDKLQKLTTNIVKNNEDKTFVFEDLTNIKKKGKKHKDHKRDGQSSKRFRTDINRWPYRLFQMFVEYKSKNETLYVDPEGTSSECPVCGGILEHPIWKMSKCDNCGATFDRDRLSSLSIAVRGLHLCGTPFSVSGSASWDSMKDNYLYR | not soluble
MSHRKALLIHNGNAANKNIEKALGAVVPVLSHHLDEVIIKQTKKKDHAYHFCRSIDDSVDTVFILGGDGTIHQCINAISALERKPAVGILPGGTSNDFSRVLGIPQNLAKAAEALMAGKKTSVDVCQMNDRYFLNFWGIGLIAETSNQINETEKALLGKISYFTSALRTVSSAASFPMTLKIDGEEIKEEAVMLLVMNGQYIGTNRIPLPDASIEDGLLDVLICRNTNLTALRELMSMEQGSIDRFTGELSYVQASRIEIETDTAKKADMDGEVYTHTPAVIQVLPQHIDMLVPANE | soluble
MSIEQTLSQYLPSHPKPQGVTFTYGTAGFRMKADKLDYVTFTVGIIASLRSKYLQGKTVGVMITASHNPPEDNGVKVVDPLGSMLESSWEKYATDLANASPSPSNDSEGEKNSLVEVIKNLVSDLKIDLSIPANVVIARDSRESSPALSMATIDGFQSVPNTKYQDFGLFTTPELHYVTRTLNDPDFGKPTEDGYYSKLAKSFQEIYTICESNNEKIDITIDAANGVGAPKIQELLEKYLHKEISFTVVNGDYKQPNLLNFDCGADYVKTNQKLPKNVKPVNNKLYASFDGDADRLICYYQNNDNKFKLLDGDKLSTLFALFLQQLFKQIDPTKISLNIGVVQTAYANGSSTKYVEDVLKIPVRCTPTGVKHLHHEAENFDIGVYFEANGHGTVIFNPEAEKKIFDYKPNNDNEAKAIKVLQNFSQLINQTVGDAISDLLAVLIVVHYLKLSPSDWDNEYTDLPNKLVKVIVPDRSIFKTTNAERTLVEPKGMQDEIDKLVAQYPNGRSFVRASGTEDAVRVYAEADTQNNVEELSKAVSELVK | soluble
MSIETFTPTPLLFTPGAANKVKTLIDEEGNPRLKLRVFVTGGGCSGFQYGFTFDEDIADDDTVIERDGVGLVVDPMSFQYLAGSEVDYQEGLEGSRFVIKNPNAATTCGCGQSFSI | not soluble
MSIKLFSLAKELNVGVGSLAGFLRKKGFDVEDNNPNVRIENEEFDLLLTEFGKSLPKGEAERIRKKFVKQKQGTPASAPSAKEETAGMAAKEAQVIATEVPQDMRPRFTIKGKVETEKPAEPVPSPKDKEPDTVREDKPARETAPVKEETKVVPVKEDKPKEEKPKQEEPKREEPKPEEPVQAAPVAKPVEKPVDKPQQPVMTQKPQEAETPPPAQEMEKKEDTEEVFRLKTNTQEPQVKVVGKIDLSSINSSTRPKKKTKEDRQREQNDADGKKKRKRINKAAVDVKKEAAKVSGEQGKRNAGGGNHSSGNKNNNRPAQQQSNASGGRKNNKRQSLPPKVEISDEDVQRQVKETLARLTTKKTSTTLGRGAKYRKDKRDAASRAAQDAMELNSEEQHTLKLTEFVTVSDLSNMMDVPVNEVIATCMSIGMMVGINQRLDAETINIVAEEFGFKTEFVSADLVEAIAPEEDNEEDLVA | not soluble
MSILQKLENSAAAAVKALYGTDPMEGQIQLQKTKREFKGHLTLVVFPFVKMSRKSPEATATEIGEWLLANESAVSAIEVVKGFLNLTIAPRVWLELLNEIRADINFGHKVATEDSPLVMVEYSSPNTNKPLHLGHVRNNLLGYSLSEIMKANGYRVVKTNIVNDRGIHICKSMLAWQKWGDGVTPEKAGKKGDHLIGDFYVLFDKHYKAELNSLMAEGKSKEEAEAASTLMAEAREMLRLWEAGDEKVVDLWRTMNQWVYDGFDATYKMMGVDFDKIYYESETYLVGKEEVLRGLEEGLFVKHSDGSVWADLTKDGLDEKLLLRADGTSVYMTQDIGTAKMRFNDYPINRMIYVVGNEQNYHFQVLSILLDRLGFEFGKGLVHFSYGMVELPEGKMKSREGTVVDADDLMDEMIRTAAEIAAEAGKAAEMDEEESREVARIVGLGSLKYFILKVDPRKNMTFNPKESIDFNGNTGSFVQYTYARIRSLMRRAEAAGYDIPSQLPTDLPLSEKEEALIQKVSEYAEVVSEAGHSYSPALIANYIYDLVKEYNQFYHDFSVLKEEDERIRAFRLALSEVVALTMRKGFALLGIEMPERM | not soluble
MSIQRFTPEFKAEAVRQVIERGYSVAEIAAGFGVSTHSLYKWVKAVTPDKSEKQASELLEAKSEILRLRAQMRRLEEERDILKKPSGSSHTAWRPLEHHHHHH | not soluble
MSISTEQTILTQLKTIRTKRASTTGEQKWLQQHITEANLRRLLPDISIVGLHLLSELEAGPQTGIDLATNLGVTRGGVTRAAKRLVTQGLIGSFQQPDDHKKIFYRLTPSGRKLARYHDKMHATRNHQAITLLHEHYSPAELAVIQRFLADLTDYEA | not soluble
MSKATYKERAATHPSPVAAKLFNIMHEKQTNLCASLDVRTTKELLELVEALGPKICLLKTHVDILTDFSMEGTVKPLKALSAKYNFLLFENRKFADIGNTVKLQYSAGVYRIAEWADITNAHGVVGPGIVSGLKQAAEEVTKEPRGLLMLAELSCKGSLATGEYTKGTVDIAKSDKDFVIGFIAQRDMGGRDEGYDWLIMTPGVGLDDKGDALGQQYRTVDDVVSTGSDIIIVGRGLFAKGRDAKVEGERYRKAGWEAYLRRCGQQN | soluble
MSKCSADETPVCCCMDVGTIMDNSDCTASYSRVFATRAEAEETLAALTEKARSVESEPCQITPTFTEESEGVRLDIDFVFACEAETLIFQLGLRLEHHHHHH | not soluble
MSKDVSIGWMYEGAKGNVHREDYLLGKKVDKNFEKYSDVVNAQKAEAIDSIVGTRAVFNSGQSTGLKTSSLQKDIIKSEDPFVAVKVREETKRREIMDNPLTKMRLQAALKSMMTSKAEKSKEKKSKKDKKKKKKKRSSSSSDESSDERVERKRRRSPSPKRRRRPSEKPRKRSRSPRRERPRSPKRSREESRKLSRKPSSSRSKSPRRSREDPRKVARKPSRSRSRSAERLRRKSRSPRRSREEPRKMSRSRSRSADKASSSRQFDSHIPRHLQQQRSRHDSSSGSESEHETRSSHRRRNSDDDERQDPRKKSYGLVEMRKRTAEEREEESRAPTKEYKLVKIPTGRGTGNTPREPRRALSEAEKAARLAEMQQDNVKWRDEIRERNVTKGRKEDDEEKEEADKNGYAPSFIRSQMREACDDMTVEKRLQSNKRGVQRAHGYMDRSFAKK | not soluble
MSKGMFSASQSGFSTIEVYDLGPLNKIDLSIAKAGLEDTGGTVTFSVEQSLLDSLNNADGTSYQLLPPECYTIENATYSVSPGGDRRVTGGSLVYDPHKIYNLCGFDELKYVLPLRVSSTGTPMNSDRTATLYGFIVKEAIVRLASTGGDFVVEGGTTTSPMNLDTEISFENEWDLTTSFATKGADYVDNYNSANSTYYIPLPSDFYTLPDVTIAKGKTTGGSAISLLGETLPPGNYLLPVSLGGLSGQGDASINIDKETVANYFVIKQGGPINRDHWTVTANTEEKTGEVSAAYPHNGQTISLIDGEINTFWHSKWQGGEVAPPYEIILDMGKENSVSQLGLIARQNALTSMNLEIYAGDDGETWNLIGKYFFDGSIKTEQMVPVKACDARWIRIYIPTLGSGSSVGHLAEIYVYGTDKLEHHHHHH | soluble
MSKKFNGKVCLVTGAGGNIGLATALRLAEEGTAIALLDMNREALEKAEASVREKGVEARSYVCDVTSEEAVIGTVDSVVRDFGKIDFLFNNAGYQGAFAPVQDYPSDDFARVLTINVTGAFHVLKAVSRQMITQNYGRIVNTASMAGVKGPPNMAAYGTSKGAIIALTETAALDLAPYNIRVNAISPGYMGPGFMWERQVELQAKVGSQYFSTDPKVVAQQMIGSVPMRRYGDINEIPGVVAFLLGDDSSFMTGVNLPIAGG | soluble
MSKKVLIITGDAVEALEVYYPYYRLLEEGHDVTIAAPKKKKLHTVVHDFADWDTYVEKQGYLIDAHASFAEVDPAQYDALVIPGGRAPEYIRLDENVQRIVRHFFEANKPIAAICHASLIFETMPDLLKGRSLTAYIACKPGVEALGATYVSDNTVHVDGNLVSAHAWPDLPAFMREFLRLLQ | soluble
MSKLIEYDETARRAMEVGMDKLADTVRVTLGPRGRHVVLAKAFGGPTVTNDGVTVAREIELEDPFEDLGAQLVKSVATKTNDVAGDGTTTATILAQALIKGGLRLVAAGVNPIALGVGIGKAADAVSEALLASATPVSGKTGIAQVATVSSRDEQIGDLVGEAMSKVGHDGVVSVEESSTLGTELEFTEGIGFDKGFLSAYFVTDFDNQQAVLEDALILLHQDKISSLPDLLPLLEKVAGTGKPLLIVAEDVEGEALATLVVNAIRKTLKAVAVKGPYFGDRRKAFLEDLAVVTGGQVVNPDAGMVLREVGLEVLGSARRVVVSKDDTVIVDGGGTAEAVANRAKHLRAEIDKSDSDWDREKLGERLAKLAGGVAVIKVGAATETALKERKESVEDAVAAAKAAVEEGIVPGGGASLIHQARKALTELRASLTGDEVLGVDVFSEALAAPLFWIAANAGLDGSVVVNKVSELPAGHGLNVNTLSYGDLAADGVIDPVKVTRSAVLNASSVARMVLTTETVVVDKPAKAEDHDHHHGHAH | soluble
MSKNIGLNAIEMSYLRQSLSLSAAQVGQLTNHSEAEVLAWENAETQAPELAQKKLLDIDDIIEMQVLNTTDGIEALFKKEPKRHLAFVVYPTQAIYTQYNPEFLSSLPLTELYNTAAWRIKKECKLVLEVDVSLINLNVEAYKAYREQNGLSESRESRAKWAATQL | soluble
MSKNYHIAVLPGDGIGPEVMAQALKVMDAVRSRFDMRITTSHYDVGGIAIDNHGHPLPKATVEGCEQADAILFGSVGGPKWENLPPESQPERGALLPLRKHFKLFSNLRPAKLYQGLEAFCPLRADIAANGFDILCVRELTGGIYFGQPKGREGSGQYEKAFDTEVYHRFEIERIARIAFESARKRRRKVTSIDKANVLQSSILWREIVNDVAKTYPDVELAHMYIDNATMQLIKDPSQFDVLLCSNLFGDILSDECAMITGSMGMLPSASLNEQGFGLYEPAGGSAPDIAGKNIANPIAQILSLALLLRYSLDANDAATAIEQAINRALEEGVRTGDLARGAAAVSTDEMGDIIARYVAEGV | soluble
MSKQTAIRLPDETYERLKALSERTGRTSAYYIREAIEKHIEDMEDLYLAEEATRRIQRGESKIISAEEFWRDLDN | not soluble
MSKRVRSSLILPAVCGLGLAAVLLSSCSSKAPQQPARQAGISGPGDYSRPHRDGAPWWDVDVSRIPDAVPMPHNGSVKANPYTVLGKTYYPMNDARAYRMVGTASWYGTKFHGQATANGETYDLYGMTAAHKTLPLPSYVRVTNLDNGKSVIVRVNDRGPFYSDRVIDLSFAAAKKLGYAETGTARVKVEGIDPVQWWAQRGRPAPMVLAQPKQAVAQAAPAAAQTQAVAMAQPIETYTPPPAQHAAAVLPVQIDSKKNASLPADGLYLQVGAFANPDAAELLKAKLSGVTAAPVFISSVVRNQQILHRVRLGPIGSADEVSRTQDSIRVANLGQPTLVRPD | not soluble
MSKTAAITIDTPGADDFEPHRRHLYGLAYRMLGSWSEAEDIVQETWLRWREIDPATLDNARAFLSRIATRLCLDVLKSARVRRQVYVGPWLPEPLPDAQAYAGAAPGEIAHDVSVALMLALERLSASERAAFLLHDVFDVPFAEIAGTLGRTEAGCRQLAARARNRVRESRPRFAVEESEGIRLARAFIDAAQHGDVDVLRQLLADDAVLHSDGGGKKLAFMRPILGRANIVRAFAGLARKGQSDLSSVRIVQLNGMPAIYGIERDGLPRTISLGVCGGRIVRVYIMRNPDKLAHLARFTG | not soluble
